The source of these data is the Immune Epitope Database (IEDB).

For assay [1], the target named is HLA-B*27:03. Briefly: IEDB peptide-MHC binding, purified MHC/direct/fluorescence; filed as Kd, often an IC50 or EC50 that approximates it; ≥ and ≤ were set here for values at or beyond the usual limits of such assays.
Assay [2] has as its target HLA-A*02:11. The description is as above.
The target of assay [3] is HLA-B*35:01. The assay is described as above.
The target of assay [4] is HLA-A*02:12. The description is as above.
In assay [5] the target is HLA-A*02:03. The description is as above.
Assay [6] deals with HLA-A*24:03. Described as above.
Assay [7] has as its target HLA-C*12:03. Described as above. Conditions: source organism: Squirrelpox virus.
Assay [8] concerns the target HLA-A*02:19. The assay is described as above.
Assay [9] addresses HLA-B*18:01. The description is as above.
Assay [10] concerns the target HLA-A*26:01. Described as above.
Assay [11] deals with HLA-A*68:02. The assay is described as above.
Assay [12] addresses HLA-B*07:02. Described as above.
Assay [13] deals with HLA-A*02:01. The assay is described as above.
In assay [14] the target is HLA-B*15:01. The description is as above.
In assay [15] the target is HLA-B*39:01. The assay is described as above.
For assay [16], the target named is HLA-A*02:16. The assay is described as above.
Assay [17] deals with HLA-A*69:01. The description is as above.
In assay [18] the target is HLA-B*51:01. The assay is described as above.
Assay [19] deals with HLA-B*46:01. The description is as above.
Assay [20] deals with HLA-A*31:01. The description is as above. The conditions noted are these: source organism: Pseudomonas aeruginosa.
The target in assay [21] is HLA-B*27:05. The assay is described as above. Conditions: source organism: Pseudomonas aeruginosa.
In assay [22] the target is HLA-A*01:01. The assay is described as above. The conditions noted are these: source organism: Pseudomonas aeruginosa.
For assay [23], the target named is HLA-A*11:01. Described as above. Conditions: source organism: Pseudomonas aeruginosa.
Assay [24] concerns the target HLA-A*03:01. Described as above.
The target in assay [25] is HLA-B*40:01. Described as above.
Assay [26] deals with HLA-B*08:01. Described as above. The conditions noted are these: source organism: Pseudomonas aeruginosa.
Assay [27] addresses HLA-B*58:01. Described as above. Conditions: source organism: Pseudomonas aeruginosa.
The target in assay [28] is HLA-B*15:02. The assay is described as follows: IEDB peptide-MHC binding, purified MHC/competitive/fluorescence; filed as Kd, often an IC50 or EC50 that approximates it; ≥ and ≤ were set here for values at or beyond the usual limits of such assays.
Assay [29] has as its target HLA-B*57:01. Briefly: IEDB peptide-MHC binding, purified MHC/direct/fluorescence; filed as Kd, often an IC50 or EC50 that approximates it; ≥ and ≤ were set here for values at or beyond the usual limits of such assays.
Assay [30] addresses HLA-B*46:01. Briefly: IEDB peptide-MHC binding, purified MHC/competitive/fluorescence; filed as Kd, often an IC50 or EC50 that approximates it; ≥ and ≤ were set here for values at or beyond the usual limits of such assays. Conditions: source organism: Shigella sonnei Ss046.
Assay [31] deals with HLA-C*14:02. The assay is described as follows: IEDB peptide-MHC binding, purified MHC/direct/fluorescence; filed as Kd, often an IC50 or EC50 that approximates it; ≥ and ≤ were set here for values at or beyond the usual limits of such assays. The conditions noted are these: source organism: Yersinia pestis CO92.
Assay [32] addresses HLA-B*27:05. The assay is described as follows: IEDB peptide-MHC binding, purified MHC/competitive/fluorescence; filed as Kd, often an IC50 or EC50 that approximates it; ≥ and ≤ were set here for values at or beyond the usual limits of such assays. The conditions noted are these: source organism: Zaire ebolavirus.
For assay [33], the target named is HLA-A*26:01. The description is as above. Conditions: source organism: Zaire ebolavirus.
Assay [34] concerns the target HLA-B*57:01. The description is as above. Conditions: source organism: Zaire ebolavirus.
Assay [35] concerns the target HLA-A*69:01. The assay is described as above. The conditions noted are these: source organism: Zaire ebolavirus.
Assay [36] deals with HLA-B*51:01. Described as above. The conditions noted are these: source organism: Zaire ebolavirus.
In assay [37] the target is HLA-B*15:17. The assay is described as follows: IEDB peptide-MHC binding, purified MHC/direct/fluorescence; filed as Kd, often an IC50 or EC50 that approximates it; ≥ and ≤ were set here for values at or beyond the usual limits of such assays. The conditions noted are these: source organism: Rickettsia sibirica 246.
Assay [38] has as its target HLA-A*29:02. The description is as above. Conditions: source organism: Rickettsia sibirica 246.
Setting [39] is: source organism: Squirrelpox virus.
The mark [40] stands for this setting: source organism: Pseudomonas aeruginosa.
Where [41] appears, read: source organism: Escherichia coli O157:H7 str. EC4486.
Setting [42] is: source organism: Giardia lamblia ATCC 50803.
The mark [43] stands for this setting: source organism: Zaire ebolavirus.
[44] abbreviates: source organism: Rickettsia sibirica 246.

Bounds are passed on as bounds.

One may read the Kd as the constant that tells how readily two partners part at equilibrium. Regarding MACHRVLTY, the Kd in assay [1] (setting [39]) is no less than 20 µM; in assay [2] (setting [39]), no less than 20 µM; in assay [3] (setting [39]) it was 0.021 µM; in assay [4] (setting [39]), no less than 20 µM; in [5] (setting [39]), no less than 20 µM; in assay [6] (setting [39]) it was no less than 20 µM. Further, the Kd in assay [7] was 0.018 µM; in [8] (setting [39]), no less than 20 µM; in assay [9] (setting [39]) it was no less than 20 µM; in assay [10] (setting [39]), no less than 20 µM; in assay [11] (setting [39]), no less than 20 µM; in assay [12] (setting [39]) it was no less than 20 µM. The Kd is no less than 20 µM in assay [13] (setting [39]); 0.104 µM in assay [14] (setting [39]); no less than 20 µM in [15] (setting [39]); no less than 20 µM in assay [16] (setting [39]); no less than 20 µM in assay [17] (setting [39]); no less than 20 µM in assay [18] (setting [39]). This sequence also returned a Kd in assay [19] (setting [39]) of no less than 20 µM.
With ALEPGFKDY, the Kd in assay [20] is no less than 20 µM; in assay [21] it was no less than 20 µM; in [10] (setting [40]) it was no less than 20 µM; in assay [22], 2 µM; in assay [23], no less than 20 µM; in assay [24] (setting [40]), no less than 20 µM. Also, the Kd in assay [12] (setting [40]) is no less than 20 µM; in assay [13] (setting [40]) it was no less than 20 µM; in assay [14] (setting [40]) it was 0.482 µM; in assay [25] (setting [40]), no less than 20 µM; in assay [26] it was no less than 20 µM; in [17] (setting [40]) it was no less than 20 µM. Moreover, the Kd in assay [27] was no less than 20 µM; in assay [28] (source organism: Pseudomonas aeruginosa PACS2), 0.814 µM.
Consider YAMMSLFDM, for which the Kd was no less than 20 µM in [1] (setting [41]); 0.004 µM in assay [3] (setting [41]); no less than 20 µM in assay [5] (setting [41]); no less than 20 µM in [9] (setting [41]); no less than 20 µM in assay [10] (setting [41]); no less than 20 µM in assay [24] (setting [41]). In addition, the Kd in [29] (setting [41]) was no less than 20 µM; in assay [12] (setting [41]) it was 18.4 µM; in [18] (setting [41]), no less than 20 µM; in [30], 0.113 µM.
Consider LTIVFVPEV, for which the Kd in [1] (setting [42]) is no less than 20 µM; in assay [9] (setting [42]), no less than 20 µM; in assay [10] (setting [42]) it was no less than 20 µM; in assay [24] (setting [42]), no less than 20 µM; in [13] (setting [42]) it was 0.004 µM; in [14] (setting [42]), no less than 20 µM. For the same sequence, the Kd in [15] (setting [42]) and in assay [19] (setting [42]) was no less than 20 µM throughout.
Regarding KIMQVDRPM, the Kd was 0.102 µM in assay [31] and 4 µM in assay [28] (source organism: Yersinia pestis CO92).
Sequence ELNASFIVF yielded a Kd in assay [28] (source organism: Rickettsia massiliae MTU5) of 0.182 µM.
As for SALGFTGVY, in assay [28] (source organism: Brucella canis ATCC 23365), the Kd is 0.385 µM.
Regarding KQIPIWLPL, the Kd is no less than 20 µM in assay [8] (setting [43]); no less than 20 µM in assay [11] (setting [43]); no less than 20 µM in assay [24] (setting [43]); 0.0009 µM in assay [25] (source organism: Ebola virus - Gabon (1994-1997)); 0.316 µM in assay [32]; no less than 20 µM in assay [33]. The dissociation constant (Kd) in assay [34], in [35] and in assay [36] was no less than 20 µM in each case.
As to EFVSANLAM, the Kd in [1] (setting [44]) is no less than 20 µM; in assay [2] (setting [44]), no less than 20 µM; in assay [3] (setting [44]), 0.052 µM; in assay [4] (setting [44]), no less than 20 µM; in assay [5] (setting [44]), no less than 20 µM; in assay [6] (setting [44]), no less than 20 µM. The equilibrium dissociation constant (Kd) in assay [8] (setting [44]), in assay [9] (setting [44]), in assay [10] (setting [44]), in assay [37], in assay [11] (setting [44]) and in assay [24] (setting [44]) was no less than 20 µM each time. Further, the Kd in assay [29] (setting [44]), in assay [12] (setting [44]), in assay [13] (setting [44]), in assay [14] (setting [44]), in [15] (setting [44]) and in [16] (setting [44]) was no less than 20 µM throughout. The Kd in [17] (setting [44]), in assay [18] (setting [44]), in assay [19] (setting [44]) and in [38] was no less than 20 µM each time.
